This note sets out measurements from US20250049896A1 (Regeneron, published 2025).

For orientation: Kd means the free concentration of one partner at which half of the binding sites on the other are occupied at equilibrium, for simple one-to-one binding. In general, koff refers to a measure of how fast the partners let go of each other. By kon is commonly meant a measure of how fast the partners come together. Usually t½ stands for the time needed for the level to fall by half in the phase considered.

Bounds are passed on as bounds.

Test [1] has as its target T1, hmm.hTfRC (REGN2431), human transferrin receptor extracellular domain with hexahistidine-myc-myc tag (human, UniProt P02786 89-760).
T1 construct: Monomeric recombinant protein, 79210 g/mol; also called hTFR-mmh; His-myc-myc-hTFRC ecto
Kind of test: SPR (Biacore), mAb captured on anti-human Fc, 100 nM hTFR-mmh, 25 C.

For test [2], the target named is T2, mf TFRC ecto-mmh (REGN2054), monomeric monkey (cyno) Tfrc ectodomain with C-terminal myc-myc-hexahistidine tag (monkey (cyno), Macaca fascicularis, UniProt H9EXL1 89-760).
T2 construct: range 89-760; also called mfTfR-mmh; mfTFR-mmh
T2 sequence (chain, as listed by the source): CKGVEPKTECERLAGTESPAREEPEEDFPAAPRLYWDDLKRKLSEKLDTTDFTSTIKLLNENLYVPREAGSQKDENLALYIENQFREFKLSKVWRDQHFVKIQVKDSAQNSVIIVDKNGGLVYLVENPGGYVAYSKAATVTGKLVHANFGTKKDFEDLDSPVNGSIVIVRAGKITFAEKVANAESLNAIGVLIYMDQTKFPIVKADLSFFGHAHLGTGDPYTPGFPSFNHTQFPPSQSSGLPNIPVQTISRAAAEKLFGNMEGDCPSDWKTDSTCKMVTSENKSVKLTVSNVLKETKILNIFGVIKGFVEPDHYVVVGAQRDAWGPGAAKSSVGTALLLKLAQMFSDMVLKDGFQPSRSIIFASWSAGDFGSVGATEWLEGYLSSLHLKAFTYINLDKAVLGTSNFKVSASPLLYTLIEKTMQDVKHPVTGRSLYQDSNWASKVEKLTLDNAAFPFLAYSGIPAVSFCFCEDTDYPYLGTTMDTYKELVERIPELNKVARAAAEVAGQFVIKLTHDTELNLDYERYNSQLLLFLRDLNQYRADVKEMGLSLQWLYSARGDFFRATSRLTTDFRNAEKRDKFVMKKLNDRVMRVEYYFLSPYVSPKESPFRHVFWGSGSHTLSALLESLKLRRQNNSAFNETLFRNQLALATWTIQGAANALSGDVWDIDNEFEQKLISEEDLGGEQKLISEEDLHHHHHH
As to the kind of experiment: SPR (Biacore), mAb captured on anti-human Fc, 100 nM mfTfR-mmh, 25 C. Background: In SPR one partner is held on a chip, and binding of the other changes the refractive index at the surface.

In test [3] the target is T2, mf TFRC ecto-mmh (REGN2054), monomeric …. As to the kind of experiment: SPR (Biacore), mAb from CHO supernatant captured on anti-human Fc, 100 nM mfTfR-mmh injected, 25 C. The method, then:
(§1) Biacore binding kinetics assays were conducted for the interaction of 32 anti-human TfR IgG1 monoclonal antibodies from CHO supernatants with TfR reagents at 25° C.
(§2) Equilibrium dissociation constants (KD) for the interaction of anti-TfR monoclonal antibodies with human and fascicularis monkey TfR ecto domain recombinant proteins were determined using a real-time surface plasmon resonance (SPR) based Biacore S200 biosensor. All binding studies were performed in 10 mM HEPES, 150 mM NaCl, 3 mM EDTA, and 0.05% v/v surfactant Tween-20, pH 7.4 (HBS-EP) running buffer at 37° C. The Biacore CM5 sensor surface was first derivatized by amine coupling with a monoclonal mouse anti-human Fc antibody (REGN2567) followed by a step to capture anti-TfR monoclonal antibodies in CHO conditioned media. […] The dissociation of TfR bound to anti-TfR monoclonal antibodies was monitored for 3 minutes in HBS-EP running buffer. At the end of each cycle, the anti-TfR monoclonal antibodies capture surface was regenerated using a 12-sec injection of 20 mM H₃PO₄. The association rate (ka) and dissociation rate (kd) were determined by fitting the real-time binding sensorgrams to a 1:1 binding model with mass transport limitation using Scrubber 2.0 c software. The dissociation equilibrium constant (KD) and dissociative half-life (t½) were calculated from the kinetic rate constants as: […]

Test [4] deals with T3, REGN2431 (hmm.hTfRC); monomeric human Tfrc ectodomain, amino acids C89-F760, with N-terminal … (human, UniProt P02786 89-760).
T3 construct: also called hTfR-mmh; hTFR-mmh
T3 sequence (P02786 other isoform, or with tags, fused parts or gaps): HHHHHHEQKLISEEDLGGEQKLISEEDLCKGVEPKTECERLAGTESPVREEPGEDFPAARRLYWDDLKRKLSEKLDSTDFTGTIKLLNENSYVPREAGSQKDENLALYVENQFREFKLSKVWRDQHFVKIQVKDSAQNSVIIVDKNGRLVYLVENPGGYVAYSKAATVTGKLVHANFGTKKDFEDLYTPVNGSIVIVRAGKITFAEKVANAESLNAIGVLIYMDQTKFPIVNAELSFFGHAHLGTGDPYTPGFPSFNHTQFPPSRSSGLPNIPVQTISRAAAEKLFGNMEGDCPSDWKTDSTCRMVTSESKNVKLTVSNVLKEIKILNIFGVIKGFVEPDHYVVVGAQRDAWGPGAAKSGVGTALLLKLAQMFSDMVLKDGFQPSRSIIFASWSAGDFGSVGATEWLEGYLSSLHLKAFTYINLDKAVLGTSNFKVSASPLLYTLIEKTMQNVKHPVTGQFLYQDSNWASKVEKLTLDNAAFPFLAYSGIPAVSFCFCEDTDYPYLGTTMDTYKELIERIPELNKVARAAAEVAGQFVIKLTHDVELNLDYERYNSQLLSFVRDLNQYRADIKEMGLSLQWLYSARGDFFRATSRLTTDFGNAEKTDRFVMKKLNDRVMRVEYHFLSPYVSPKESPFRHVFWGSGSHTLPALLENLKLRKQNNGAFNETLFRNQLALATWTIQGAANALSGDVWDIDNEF
As to the kind of experiment: SPR (Biacore), mAb from CHO supernatant captured on anti-human Fc, 100 nM hTfR-mmh injected, 25 C. As to the method:
as §1, §2

Test [5] has as its target T4, REGN2054 (mf TFRC ecto-mmh); monomeric monkey (cyno) Tfrc ectodomain, amino acids C89-F760, with C-terminal … (cynomolgus monkey (Macaca fascicularis), UniProt H9EXL1 89-760 (rhesus entry)).
T4 construct: range 89-760; also called mfTFR-mmh; mfTfR-mmh
Kind of test: SPR (Biacore), mAb from CHO supernatant captured on anti-human Fc, 100 nM mfTFR-mmh injected, 25 C. The method, then: as §1, §2

In test [6] the target is T1, hmm.hTfRC (REGN2431), human transferrin …. Kind of test: SPR (Biacore), mAb captured on anti-human Fc, 100 nM hTFR-mmh, 25 C; kd fixed at 1.00E-05. The method, then:
as §2, with “All binding studies were performed in 10 mM HEPES, 150 mM NaCl, 3 mM EDTA, and 0.05% v/v surfactant Tween-20, pH 7.4 (HBS-EP) running buffer at 37° C.” left out

The target is the same in test [7]. Kind of test: SPR (Biacore), mAb from CHO supernatant captured on anti-human Fc, 100 nM hTFR-mmh injected, 25 C.

T1 sequence (P02786 other isoform, or with tags, fused parts or gaps): as above
T4 sequence (chain, as listed by the source): as the sequence (chain, as listed by the source) above

B1: 12845B (antibody, human IgG1, kappa, V domains shown)
VH: EVQLVESGGGLVQPGGSLRLSCAASGFTVSNYEMNWVRQAPGKGLEWVSYISSSTSNIYYADSVKGRFTISRDNAENSLYLQMNSLRVEDTAVYYCVRDGIVVVPVGRGYYYYGLDVWGQGTTVTVSS
VL: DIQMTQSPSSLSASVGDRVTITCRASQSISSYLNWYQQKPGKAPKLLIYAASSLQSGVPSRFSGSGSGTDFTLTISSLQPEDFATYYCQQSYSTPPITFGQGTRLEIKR
notes: Tested as bivalent human IgG1 from CHO primary supernatant; also called H1H12845B; REGN17513
As for B1, in test [1], the “100 nM Ag Bound (RU)” value was found to be 1100 RU, the Kd was determined as 1.18 nM, the koff is 0.000199 s⁻¹ and the kon came to 168000 M⁻¹ s⁻¹. In test [1], this molecule returned a t½ of 57.9 min. The “100 nM Ag Bound (RU)” value in test [2] worked out at 13 RU. In test [3], the binding result is listed as “no binding (tested: 100 nM)”.

B2: 12841B (antibody, human IgG1, kappa, V domains shown)
VH: EVQLVESGGGLVQPGGSLRLSCAASGFTFSNYWMNWVRQAPGKGLEWVANIKEDGGKKLYVDSVKGRFTISRDNAKNSLFLQMNSLRAEDTAVYYCAREDTTLVVDYYYYGMDVWGQGTTVTVSS
VL: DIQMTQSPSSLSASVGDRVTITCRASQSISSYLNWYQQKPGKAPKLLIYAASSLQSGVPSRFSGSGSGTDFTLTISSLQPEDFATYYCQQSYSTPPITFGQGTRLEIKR
notes: Tested as bivalent human IgG1 from CHO primary supernatant; also called H1H12841B; REGN17511
For the molecule B2, in test [1], the “100 nM Ag Bound (RU)” value turned out to be 1150 RU; the affinity, expressed as Kd, was 0.67 nM; the koff is 0.000116 s⁻¹; the kon stood at 173000 M⁻¹ s⁻¹. For the same molecule, in test [1], the t½ is 99.8 min. Also, the “100 nM Ag Bound (RU)” value in test [2] is 4 RU. Further, the binding result in test [3] is reported as “no binding (tested: 100 nM)”.

B3: 31863B anti-human TfR IgG1 monoclonal antibody (antibody, V domains shown)
VH: EVQLVESGGGLVQPGGSLRLSCAASGFTFNSYAMTWVRQAPGKGLEWVSFIGGSTGNTYYAGSVKGRFTISSDNSKKTLYLQMNSLRAEDTAVYYCAKGGAARRMEYFQHWGQGTLVTVSS
VL: DIQMTQSPSSLSASIGDRVTITCRASQGISNYLAWYQQKPGKVPKLLIYAASTLQSGVPSRFSGSGSGTDFTLTISSLQPEDVATYYCQNHNSVPLTFGGGTKVEIKR
notes: Tested as bivalent IgG1 from CHO primary supernatant
Take B3: the affinity in test [4], expressed as Kd, was 0.0656 nM.

B4: 69331 anti-human TfR IgG1 monoclonal antibody (antibody, V domains shown)
VH: QVQLVESGGGVVQPGRSLRLSCIASGFTFSVYGIHWVRQAPGKGLEWMAVISHDGNIKHYADSVKGRFTISRDNSKNTLYLQINSLRTEDTAVYYCAKDTWNSLDTFDIWGQGTMVTVSS
VL: DIQLTQSPSSLSASVGDRVTITCWASQGISSYLAWYQQKPGKAPKLLIYAASTLQSGVPSRFSGSGSGTEFTLTISSLQPEDFATYYCQQLNSYPLTFGGGTKVEIKR
notes: as for B3
Take B4: the Kd amounted to 41 nM in test [4] and 20.5 nM in test [5].

B5: 31863B (antibody, human IgG1, kappa, V domains shown)
VH: EVQLVESGGGLVQPGGSLRLSCAASGFTFNSYAMTWVRQAPGKGLEWVSFIGGSTGNTYYAGSVKGRFTISSDNSKKTLYLQMNSLRAEDTAVYYCAKGGAARRMEYFQHWGQGTLVTVSS
VL: DIQMTQSPSSLSASIGDRVTITCRASQGISNYLAWYQQKPGKVPKLLIYAASTLQSGVPSRFSGSGSGTDFTLTISSLQPEDVATYYCQNHNSVPLTFGGGTKVEIKR
notes: Tested as bivalent human IgG1 from CHO primary supernatant
For the molecule B5, in test [1], the “100 nM Ag Bound (RU)” value was 1080 RU, the koff is less than 1e-05 s⁻¹, the kon was 152000 M⁻¹ s⁻¹ and the t½ is greater than 1160 min. In test [2], the “100 nM Ag Bound (RU)” value was determined as 145 RU, binding was characterised by a dissociation constant (Kd) of 18.3 nM, the koff worked out at 0.00298 s⁻¹ and the kon came out at 163000 M⁻¹ s⁻¹. The molecule also gave a t½ in test [2] of 3.9 min. The molecule further displayed a Kd in test [6] of no more than 0.0656 nM.

B6: 69305 (antibody, human IgG1, kappa, V domains shown)
VH: QVQLVESGGGVVQPGRSLRLSCAASGFTFSSYGMHWVRQAPGKGLEWVAVIWYDGSNKYYADSVKGRFTISRDISKNTLYLQMNSLRAEDTAVYYCAGQLDLFFDYWGQGTLVTVSS
VL: DIQMTQSPSSLSASVGDRVTITCRASQSIDRYLNWYRQKPGKAPKLLIYTTSSLQSGVPSRFSGSGSGTDFTLTLSSLQPEDFATYYCQQSYSPPLTFGGGTKVEIKR
notes: as for B5
With B6, the entries for the “100 nM Ag Bound (RU)” value in test [1] and in test [2] were 6 RU and -7 RU, respectively. The binding result in test [7] was “no binding (tested: 100 nM)”.

B7: 12795B (antibody, human IgG1, kappa, V domains shown)
VH: EVQLVESGGGLVQPGGSLRLSCATSGFTFTSYDMKWVRQAPGLGLEWVSAISGSGGNTYYADSVKGRFTISRDNSRNTLYLQMNSLRAEDTAVYYCTRSHDFGAFDYFDYWGQGTLVTVSS
VL: DIQMTQSPSSLSASVGDRVTITCRASQGIRDHFGWYQQKPGKAPKRLIYAASSLHSGVPSRFSGSGSGTEFTLTISSLQPEDFATYYCLQYDTYPLTFGGGTKVEIKR
notes: as for B5
Take B7: in test [1], the “100 nM Ag Bound (RU)” value came out at 883 RU, the dissociation rate constant (koff) is less than 1e-05 s⁻¹, the kon worked out at 122000 M⁻¹ s⁻¹ and the t½ is greater than 1160 min. In test [2], the “100 nM Ag Bound (RU)” value was 364 RU, the Kd worked out at 1.16 nM, the koff was 7.13e-05 s⁻¹ and the kon stood at 61000 M⁻¹ s⁻¹. In addition, the t½ in test [2] is 162 min. In addition, in test [6], the Kd is no more than 0.0823 nM.

B8: 12795B anti-human TfR IgG1 monoclonal antibody (antibody, V domains shown)
VH: EVQLVESGGGLVQPGGSLRLSCATSGFTFTSYDMKWVRQAPGLGLEWVSAISGSGGNTYYADSVKGRFTISRDNSRNTLYLQMNSLRAEDTAVYYCTRSHDFGAFDYFDYWGQGTLVTVSS
VL: DIQMTQSPSSLSASVGDRVTITCRASQGIRDHFGWYQQKPGKAPKRLIYAASSLHSGVPSRFSGSGSGTEFTLTISSLQPEDFATYYCLQYDTYPLTFGGGTKVEIKR
notes: as for B3
B8 registered a Kd in test [5] of 1.16 nM.

B9: 69332 (antibody, human IgG1, kappa, V domains shown)
VH: QVTLRESGPALVKPSQTLTLTCTFSGFSLNTYGMFVSWIRQPPGKALEWLAHIHWDDDKYYSTSLKTRLTISKDTSKNQVVLTMTNMDPVDTATYYCARGHNNLNYIIHWGQGTLVTVSS
VL: AIQMTQSPSSLSASVGDRVTITCRASQGIRNDLGWYQQKPGKAPKLLIYAASTLQSGVPSRFSGSGSGTDFTLTISSLQPEDFATYYCLQDYNYPFTFGPGTKVDIKR
notes: as for B5
As to B9, the “100 nM Ag Bound (RU)” value was determined as 9 RU in test [1] and 1 RU in test [2]. Moreover, the binding result in test [7] and in test [3] was “no binding (tested: 100 nM)” throughout.

B10: 12834B (antibody, human IgG1, kappa, V domains shown)
VH: QVQLVQSGAEVKKPGASVKVSCKASGYTFTSYGISWVRQAPGQGLEWMGWISVYHGNTNYAQKFQGRVTMTTDTSTSTAYMELRSLRSDDTAVYYCAREGYYDFWSGYYPFDYWGQGTLVTVSS
VL: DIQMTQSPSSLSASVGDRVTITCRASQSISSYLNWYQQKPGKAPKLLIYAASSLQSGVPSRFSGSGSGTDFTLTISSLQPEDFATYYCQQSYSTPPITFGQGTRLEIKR
notes: as for B5
On to B10, for which, in test [1], the “100 nM Ag Bound (RU)” value is 11 RU, the Kd worked out at 7 nM, the koff came to 0.00439 s⁻¹ and the kon was determined as 600000 M⁻¹ s⁻¹. The same molecule returned a t½ in test [1] of 2.6 min. For the same molecule, the “100 nM Ag Bound (RU)” value in test [2] came to 5 RU. The binding result in test [3] was “no binding (tested: 100 nM)”.

B11: 12839B (antibody, human IgG1, kappa, V domains shown)
VH: QVQLVESGGGVVQPGRSLRLSCAASGFPFSNYVMYWVRQAPGKGLEWVALIFFDGKKNYHADSVKGRFTITRDNSKNMLYLQMNSLRPEDAAVYYCAKIHCPNGVCYKGYYGMDVWGQGTTVTVSS
VL: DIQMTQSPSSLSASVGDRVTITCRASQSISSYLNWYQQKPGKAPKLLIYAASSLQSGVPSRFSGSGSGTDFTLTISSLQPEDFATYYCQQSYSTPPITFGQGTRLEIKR
notes: Tested as bivalent human IgG1 from CHO primary supernatant; also called H1H12839B; REGN17510
B11: in test [1], the “100 nM Ag Bound (RU)” value was found to be 660 RU; the affinity, expressed as Kd, was 0.448 nM; the koff turned out to be 5.33e-05 s⁻¹; the kon worked out at 118000 M⁻¹ s⁻¹. In addition, the t½ in test [1] was 217 min. Further, the “100 nM Ag Bound (RU)” value in test [2] was 11 RU. Moreover, the binding result in test [3] is reported as “no binding (tested: 100 nM)”.
